Data: patent US6642368B1, “Programmed cell death and caspase-12” (The General Hospital Corporation, priority 1998, dated 2003)

Experiments:
[1] = target: T1, caspase-12Δ (Gly95-Asn419 of caspase-12L, with an artificial initiation codon), [35S]-labeled
T1 chain: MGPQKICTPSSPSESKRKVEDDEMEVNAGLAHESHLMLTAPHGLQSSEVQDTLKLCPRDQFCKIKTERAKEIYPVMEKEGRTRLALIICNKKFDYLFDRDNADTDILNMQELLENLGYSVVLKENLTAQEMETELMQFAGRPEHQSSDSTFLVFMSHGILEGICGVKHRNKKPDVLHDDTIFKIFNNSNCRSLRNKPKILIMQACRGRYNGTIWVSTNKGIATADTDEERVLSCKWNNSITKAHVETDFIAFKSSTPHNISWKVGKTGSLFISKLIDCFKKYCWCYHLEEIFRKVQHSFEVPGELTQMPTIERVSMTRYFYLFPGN

[2] = target: poly(ADP-ribose) polymerase
[3] = target: T2, pro-caspase-12 (caspase-12L, full-length precursor, 419 residues, 48 kDa)
T2 chain: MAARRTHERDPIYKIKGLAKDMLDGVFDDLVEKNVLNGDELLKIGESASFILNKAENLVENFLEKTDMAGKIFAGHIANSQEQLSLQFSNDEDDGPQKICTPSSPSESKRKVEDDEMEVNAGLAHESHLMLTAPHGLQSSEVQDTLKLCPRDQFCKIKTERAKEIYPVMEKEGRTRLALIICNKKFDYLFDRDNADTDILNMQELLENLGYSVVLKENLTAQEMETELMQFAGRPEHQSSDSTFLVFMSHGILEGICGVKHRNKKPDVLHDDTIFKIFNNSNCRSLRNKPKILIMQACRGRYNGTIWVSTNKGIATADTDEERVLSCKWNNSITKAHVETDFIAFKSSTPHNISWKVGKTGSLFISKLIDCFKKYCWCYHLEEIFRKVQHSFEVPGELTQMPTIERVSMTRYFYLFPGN

[4] = target: T3, pro-caspase-2 ([35S]-labeled)
T3 sequence (P42575 2-452, species assumed, looked up): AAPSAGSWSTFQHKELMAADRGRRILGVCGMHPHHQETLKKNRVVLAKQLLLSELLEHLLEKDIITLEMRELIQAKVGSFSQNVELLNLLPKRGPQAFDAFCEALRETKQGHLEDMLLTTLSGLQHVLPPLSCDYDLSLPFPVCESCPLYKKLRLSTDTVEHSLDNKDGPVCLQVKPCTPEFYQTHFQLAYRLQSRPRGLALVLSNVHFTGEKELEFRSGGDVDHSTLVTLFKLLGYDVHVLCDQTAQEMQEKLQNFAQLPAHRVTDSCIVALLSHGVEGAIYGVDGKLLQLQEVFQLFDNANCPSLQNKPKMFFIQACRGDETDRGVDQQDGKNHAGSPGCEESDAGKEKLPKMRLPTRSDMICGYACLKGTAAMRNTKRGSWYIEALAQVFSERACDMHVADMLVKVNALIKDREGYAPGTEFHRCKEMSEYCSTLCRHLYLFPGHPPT

[5] = target: T4, pro-caspase-3 ([35S]-labeled)
T4 sequence (P42574 1-277, species assumed, looked up): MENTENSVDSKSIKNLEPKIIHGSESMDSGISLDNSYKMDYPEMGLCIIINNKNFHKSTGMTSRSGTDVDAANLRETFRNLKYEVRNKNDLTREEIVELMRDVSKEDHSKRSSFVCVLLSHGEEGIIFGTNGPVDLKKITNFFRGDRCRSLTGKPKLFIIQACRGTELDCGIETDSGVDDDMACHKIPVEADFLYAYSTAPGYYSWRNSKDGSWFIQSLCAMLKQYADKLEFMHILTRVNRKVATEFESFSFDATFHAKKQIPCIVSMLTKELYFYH

caspase-12 = target: T5, caspase-12 (Mus musculus, UniProt O08736); experiment: Suppression of cell-killing activity of caspase-12 by baculovirus p35; assay type: cell-based; settings: unpublished data
T5 sequence (O08736 1-419): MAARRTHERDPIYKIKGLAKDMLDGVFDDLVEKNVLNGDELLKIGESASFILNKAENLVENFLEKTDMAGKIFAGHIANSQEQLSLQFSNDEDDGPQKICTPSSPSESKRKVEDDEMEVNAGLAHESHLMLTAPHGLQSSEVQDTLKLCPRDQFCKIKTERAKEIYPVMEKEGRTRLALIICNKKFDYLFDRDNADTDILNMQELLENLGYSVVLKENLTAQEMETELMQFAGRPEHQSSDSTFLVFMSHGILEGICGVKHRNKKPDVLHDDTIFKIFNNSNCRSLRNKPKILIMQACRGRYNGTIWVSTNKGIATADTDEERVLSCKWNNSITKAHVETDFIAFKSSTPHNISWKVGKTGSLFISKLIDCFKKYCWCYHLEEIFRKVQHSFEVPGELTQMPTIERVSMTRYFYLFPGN

Rat-1 cells = experiment: Cell death induced by transient overexpression of lacZ fusion constructs, X-gal staining; assay type: cell-based; settings: lacZ fusion construct, 24 hr after transfection
Description: (§1) FIGS. 4A-4C. Cell death induced by overexpression of caspase-12. […] The round cells expressing the casp-12L-lacZ fusion proteins show condensed and fragmented nuclei. […] The data shown are the percentage of round blue cells among total number of blue cells counted. In each transfection, over 200 blue cells were randomly chosen and counted. The data of Rat-1 cells collected from at least three independent experiments. The constructs used were: casp-12L-lacZ, casp-12S-lacZ, casp-12Δ-lacZ, ICE-lacZ, lacZ. Rat embryonic fibroblast cells (REF) were also transfected with either casp-12L-lacZ or lacZ.
To examine if expression of caspase-12 induces apoptosis, a transient expression system was used to overexpress caspase-12 in mammalian cells. […] Transfected cells are easily detected by staining with X-gal because of the β-galactosidase activity of lacZ. Expression constructs of casp-12L and casp-12S fused with lacZ gene in pcDNA3 vector, which contains the cytomegalovirus (CMV) promoter, were generated. These expression constructs were introduced into Rat-1 cells by transfection, and the expression of the genes were examined 24 hr after transfection using X-gal reaction.
(§2) Rat-1, rat embryonic fibroblast cells, NG108-15, HeLa and COS-1 were maintained in culture at 37° C. with 5% CO2 in Dulbecco's modified Eagle's medium containing 10% (v/v) fetal bovine serum (BioWhittaker) and 50 units/ml penicillin and 50 μg/ml streptomycin (Sigma). The day before transfection, cells were seeded at a density of 1.3×10^4 cells/cm^2. Expression constructs were transferred to cells with either calcium phosphate or lipofectamine (GIBCO BRL) as previously described (Miura, M., et al., Cell 75:653-660 (1993); Kumar, S., et al., Genes and Development 8:1613-1626 (1994); Wang, L., et al., Cell 78:739-750 (1994)). The expression of chimeric genes in cells was detected by staining of cells with 5-bromo-4-chloro-3-indolyl β-D-galactoside (X-gal) as previously described (Miura, M., et al., Cell 75:653-660 (1993); Kumar, S., et al., Genes and Development 8:1613-1626 (1994); Wang, L., et al., Cell 78:739-750 (1994)). Immunostaining of transfected cells was done as previously described using mouse monoclonal anti-lacZ antibody (Miura, M., et al., Cell 75:653-660 (1993); Kumar, S., et al., Genes and Development 8:1613-1626 (1994); Wang, L., et al., Cell 78:739-750 (1994)).

[6] = test system: rat embryonic fibroblast cells; experiment: as above; assay type: cell-based; settings: primary rat embryonic fibroblasts, FIG. 4C
Description: as §1
Rat-1, rat embryonic fibroblast cells, NG108-15, HeLa and COS-1 were maintained in culture at 37° C. with 5% CO2 in Dulbecco's modified Eagle's medium containing 10% (v/v) fetal bovine serum (BioWhittaker) and 50 units/ml penicillin and 50 μg/ml streptomycin (Sigma). The day before transfection, cells were seeded at a density of 1.3×10^4 cells/cm^2. […] The expression of chimeric genes in cells was detected by staining of cells with 5-bromo-4-chloro-3-indolyl β-D-galactoside (X-gal) as previously described (Miura, M., et al., Cell 75:653-660 (1993); Kumar, S., et al., Genes and Development 8:1613-1626 (1994); Wang, L., et al., Cell 78:739-750 (1994)). […]

Rat-1/bcl-2 = experiment: Effect of cell death suppressor bcl-2 on caspase-12 killing activity; assay type: cell-based; settings: casp-12L-lacZ in Rat-1/bcl-2 stable transfectant
Protocol: FIGS. 5A-5B. Effect of cell death suppressors on the killing activity of caspase-12. […] Cell death was assayed as described in FIG. 4C. […] The data from transfection of the parental cell line, Rat-1 (FIG. 4C), are included in the figures for comparison. The lacZ construct was also used for transfection as a control.
To determine if expression of bcl-2 and crmA can inhibit apoptosis induced by casp-12 overexpression, casp-12L-lacZ fusion construct was transfected into stable cell lines of Rat-1 that overexpresses either bcl-2 or crmA (Miura, M., et al., Cell 75:653-660 (1993)). Cell death was assayed as described above (Example 3). […] The magnitude of the bcl-2 suppression against toxicity of casp-12 overexpression was about 10% (60% for Rat-1, 50% for Rat-1/bcl-2) which is much smaller than that observed for ICE and casp-2 (FIG. 5A; Wang, L., et al., Cell 78:739-750 (1994)).

HeLa = experiment: Cell type specificity of cell killing, lacZ fusion transfection; assay type: cell-based; settings: FIG. 6
Protocol: (§3) FIG. 6. The cell type specificity of caspase-12-induced cell killing activity. NG108-15, HeLa and COS-1 cells were transfected with casp-12L-lacZ, casp-12S-LacZ, lacZ or ICE-lacZ. Staining of transfectants were done and the data are presented as in FIG. 4C.
as §2, with “Immunostaining of transfected cells was done as previously described using mouse monoclonal anti-lacZ antibody (Miura, M., et al., Cell 75:653-660 (1993); Kumar, S., et al., Genes and Development 8:1613-1626 (1994); Wang, L., et al., Cell 78:739-750 (1994)).” left out

NG108-15 = experiment: as above; assay type: cell-based; settings: NG108-15, FIG. 6
Protocol: as §3
as §2, with “Immunostaining of transfected cells was done as previously described using mouse monoclonal anti-lacZ antibody (Miura, M., et al., Cell 75:653-660 (1993); Kumar, S., et al., Genes and Development 8:1613-1626 (1994); Wang, L., et al., Cell 78:739-750 (1994)).” left out

COS-1 cells = experiment: as above; assay type: cell-based, monkey; settings: COS-1, FIG. 6
Protocol: as §3
as §2, with “Immunostaining of transfected cells was done as previously described using mouse monoclonal anti-lacZ antibody (Miura, M., et al., Cell 75:653-660 (1993); Kumar, S., et al., Genes and Development 8:1613-1626 (1994); Wang, L., et al., Cell 78:739-750 (1994)).” left out

[7] = Protease activity of full-length recombinant caspase-12 from E. coli; assay type: biochemical; settings: expressed and purified from E. coli

Sequence of pro-ICE ([35S]-labeled) (P29466 whole entry): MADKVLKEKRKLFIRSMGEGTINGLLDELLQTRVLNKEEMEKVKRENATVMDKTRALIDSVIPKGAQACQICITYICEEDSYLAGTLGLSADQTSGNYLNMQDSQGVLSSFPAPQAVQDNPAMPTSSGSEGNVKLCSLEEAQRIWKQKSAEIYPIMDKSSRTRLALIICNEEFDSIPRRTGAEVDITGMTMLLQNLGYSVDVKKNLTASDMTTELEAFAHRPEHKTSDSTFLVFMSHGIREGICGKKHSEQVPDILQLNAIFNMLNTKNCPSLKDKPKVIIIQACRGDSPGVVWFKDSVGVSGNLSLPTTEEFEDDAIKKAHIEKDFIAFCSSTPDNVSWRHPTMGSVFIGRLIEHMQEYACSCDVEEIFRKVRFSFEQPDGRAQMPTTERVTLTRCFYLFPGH
Sequence of pro-IL-1β (P01584 whole entry): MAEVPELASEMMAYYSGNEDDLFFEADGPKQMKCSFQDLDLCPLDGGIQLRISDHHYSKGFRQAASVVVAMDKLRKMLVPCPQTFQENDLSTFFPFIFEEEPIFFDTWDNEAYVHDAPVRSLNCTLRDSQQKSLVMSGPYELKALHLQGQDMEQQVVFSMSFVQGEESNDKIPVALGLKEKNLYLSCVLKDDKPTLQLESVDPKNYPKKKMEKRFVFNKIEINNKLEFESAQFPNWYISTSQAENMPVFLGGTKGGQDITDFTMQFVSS

B1: His-tagged caspase-12Δ2 (residues 145-419 of caspase-12L), partially purified from E. coli, autoprocessed into p24 and p10 (protein)
chain 1: TLKLCPRDQFCKIKTERAKEIYPVMEKEGRTRLALIICNKKFDYLFDRDNADTDILNMQELLENLGYSVVLKENLTAQEMETELMQFAGRPEHQSSDSTFLVFMSHGILEGICGVKHRNKKPDVLHDDTIFKIFNNSNCRSLRNKPKILIMQACRGRYNGTIWVSTNKGIATAD
chain 2: TDEERVLSCKWNNSITKAHVETDFIAFKSSTPHNISWKVGKTGSLFISKLIDCFKKYCWCYHLEEIFRKVQHSFEVPGELTQMPTIERVSMTRYFYLFPGN
With B1 the “in vitro cleavage of [35S]-labeled protein by the partially purified protease” value [1] was “the 38 kDa polypeptide was cleaved into 26 kDa and 13 kDa fragments”, the “in vitro cleavage by the purified protease” value [2] was “showed little activity for cleavage of pro-IL-1β and poly(ADP-ribose) polymerase” and the “in vitro cleavage of [35S]-labeled pro-enzyme by the partially purified protease” value (pro-ICE ([35S]-labeled)) was “only faint bands of cleavage products were visible”. The “in vitro cleavage by the purified protease” value (pro-IL-1β) was “showed little activity for cleavage of pro-IL-1β and poly(ADP-ribose) polymerase”, the “in vitro cleavage of [35S]-labeled pro-enzyme by the partially purified protease” value [3] was “can efficiently process pro-caspase-12 (48 kDa) into fragments” and the “in vitro cleavage of [35S]-labeled pro-enzyme by the partially purified protease” value [4] was “only faint bands of cleavage products were visible”. The “in vitro cleavage of [35S]-labeled pro-enzyme by the partially purified protease” value [5] was “only faint bands of cleavage products were visible”.

B2: baculovirus p35: virus inhibitor for the caspase family (protein, UniProt P08160 1-299, looked up)
Early 35 kDa protein: MCVIFPVEIDVSQTIIRDCQVDKQTRELVYINKIMNTQLTKPVLMMFNISGPIRSVTRKNNNLRDRIKSKVDEQFDQLERDYSDQMDGFHDSIKYFKDEHYSVSCQNGSVLKSKFAKILKSHDYTDKKSIEAYEKYCLPKLVDERNDYYVAVCVLKPGFENGSNQVLSFEYNPIGNKVIVPFAHEINDTGLYEYDVVAYVDSVQFDGEQFEEFVQSLILPSSFKNSEKVLYYNEASKNKSMIYKALEFTTESSWGKSEKYNWKIFCNGFIYDKKSKVLYVKLHNVTSALNKNVILNTIK
In the case of B2, the “suppression of cell-killing activity of caspase-12” value (caspase-12) is reported as “could not efficiently suppress”.

B3: caspase-12L: long form of mouse caspase-12, 419 amino acid residues (SEQ ID NO:2); expressed as lacZ fusion (protein)
chain: MAARRTHERDPIYKIKGLAKDMLDGVFDDLVEKNVLNGDELLKIGESASFILNKAENLVENFLEKTDMAGKIFAGHIANSQEQLSLQFSNDEDDGPQKICTPSSPSESKRKVEDDEMEVNAGLAHESHLMLTAPHGLQSSEVQDTLKLCPRDQFCKIKTERAKEIYPVMEKEGRTRLALIICNKKFDYLFDRDNADTDILNMQELLENLGYSVVLKENLTAQEMETELMQFAGRPEHQSSDSTFLVFMSHGILEGICGVKHRNKKPDVLHDDTIFKIFNNSNCRSLRNKPKILIMQACRGRYNGTIWVSTNKGIATADTDEERVLSCKWNNSITKAHVETDFIAFKSSTPHNISWKVGKTGSLFISKLIDCFKKYCWCYHLEEIFRKVQHSFEVPGELTQMPTIERVSMTRYFYLFPGN
modifications: lacZ fusion
In the case of B3, the “percentage of cell death (round blue cells among total blue cells)” value (Rat-1 cells) is reported as “about 60%”, the “percentage of cell death (round blue cells among total blue cells)” value (Rat-1 cells; listed as casp-12L-lacZ) is reported as 60% and the “transfected cells round and small” value [6] is reported as “about 60%”. The “percentage of cell death” value (Rat-1/bcl-2) was 50%, the “apoptosis induced by casp-12L expression” value (HeLa) was “resistant to apoptosis” and the “apoptosis induced by casp-12L expression” value (NG108-15) was “resistant to apoptosis”. The “apoptosis induced by casp-12L expression” value (COS-1 cells) was “resistant to apoptosis” and the “processing and protease activity in vitro” value [7] was “without any processing and protease activity”.
